# Experimental data taken from article PMC6940790.
# Substitutions are numbered along the chain they refer to. Names may count otherwise.
# B1: Bgl1D (uncultured microorganism; L115N/S28T) (protein)
# chain: MSLFFTFNPLEIVPTRVIGVPNHYQNYTWCNFQNGDYPFIDGIDINLIYQVKVGIPIVVRLETVATIFNILIPHLSESERDYIKRVYDYLRLDGRTSQSSYFFGPVDSQKIGLINRKYFFEWSSQMTYECLSGKVRGIAAPDKLVSEMNEIYNELMKVFNGDVSNIVNIGVN
# B2: Bgl1D (uncultured microorganism; D44E/F68L/I70M/R91G/Y37H) (protein)
# chain: B1 chain with T28S, Y37H, D44E, F68L, I70M, R91G, N115L
# B3: Bgl1D (uncultured microorganism; E154G/I57K/S28P) (protein)
# chain: B1 chain with T28P, I57K, N115L, E154G
# B4: Bgl1D (uncultured microorganism) (protein)
# chain: B1 chain with T28S, N115L
# B5: Bgl1D (uncultured microorganism; F68L/I70M) (protein)
# chain: B1 chain with T28S, F68L, I70M, N115L
# Tested on: O=[N+]([O-])c1ccc(O[C@@H]2O[C@H](CO)[C@@H](O)[C@H](O)[C@H]2O)cc1
# Assay: purified protein
# Conditions: pH 10.0, glycine-NaOH, 30 °C
Molecule,Km [µM],Vmax [µmol/min/mg],kcat [s⁻¹],kcat/Km [M⁻¹ s⁻¹]
Bgl1D (uncultured microorganism; E154G/I57K/S28P/W122G/Y82S),1670 ± 120,42.5,55.8,33400
Bgl1D (uncultured microorganism; K117N/M148K/Q25L),1250 ± 120,21.7,23.8,14400
Bgl1D (uncultured microorganism; K117N/L115Q/M148K/Q25L/S28T),1740 ± 140,37.5,31.2,17900

# Same assay, conditions: pH 10.0, glycine-NaOH, results text says 30 °C, methods say optimal temperatures of 30 and 50 °C
Molecule,Km [µM],Vmax [µmol/min/mg],kcat [s⁻¹],kcat/Km [M⁻¹ s⁻¹]
Bgl1D (uncultured microorganism; D44E/L115N/R91G/S28T/Y37H),430 ± 40,314,242,562000

# Substrate: O=[N+]([O-])c1ccc(O[C@@H]2O[C@H](CO)[C@@H](O)[C@H](O)[C@H]2O)cc1
# Assay: purified protein
# Conditions: pH 10.0, glycine-NaOH, 30 °C
# Remark: another data set of the same source
Molecule,Km [µM],Vmax [µmol/min/mg],kcat [s⁻¹],kcat/Km [M⁻¹ s⁻¹]
B1,1010 ± 450,26.3,16.5,16400
B2,470 ± 20,154,139,296000
B3,1170 ± 50,52.9,48.1,41100
B4,540 ± 30,20.1,13.4,24800
B5,530 ± 80,25.8,29.4,55400
